Measured values published in publication PMC10269683, “comCDE (Competence) Operon Is Regulated by CcpA in Streptococcus pneumoniae D39”.

B1: P54 (cre3+cre4) (dsDNA)
DNA 1: TAAGTTAGCTTACAAGAAAAAACATTTTAGGAGATTTTATTATGAAAAACACAG
DNA 2: CTGTGTTTTTCATAATAAAATCTCCTAAAATGTTTTTTCTTGTAAGCTAACTTA
B2: Mut cre1 (dsDNA)
DNA 1: ATATAATAGATGCATGTCATGTGAATTCCACGTTGCATCTAATTAAGTACACTTTGGGAGAAAAAAATGACAGTTGAGA
DNA 2: TCTCAACTGTCATTTTTTTCTCCCAAAGTGTACTTAATTAGATGCAACGTGGAATTCACATGACATGCATCTATTATAT
B3: Mut cre2 (dsDNA)
DNA 1: ATATAATAGCAAAGCTGGGAATTTTCCCGGCTTTTTTCTTAAAAAAGTACACAACGATAGATATTAGGTAGAATGGAGA
DNA 2: TCTCCATTCTACCTAATATCTATCGTTGTGTACTTTTTTAAGAAAAAAGCCGGGAAAATTCCCAGCTTTGCTATTATAT

Key:
CcpA [1] = biological target: T1, CcpA (Streptococcus pneumoniae D39, UniProt A0A0H2ZQ65 1-336); assay: EMSA; complex at 1 ug CcpA, 1 ng probe; unlabeled Np54 (100 ng) diminished complex; EMSA: 10 mM Tris-HCl pH 7.4, 1 mM DTT, 1 mM EDTA, 50 mM KCl, 5% glycerol, 50 ug/mL BSA, 0.05% NP-40, 20 min 37 C; footprinting binding 30 min 25 C; details: protein: recombinant; label: 5' biotin; blunt
CcpA [2] = biological target: T1, CcpA; assay: EMSA; increasing CcpA; EMSA: 10 mM Tris-HCl pH 7.4, 1 mM DTT, 1 mM EDTA, 50 mM KCl, 5% glycerol, 50 ug/mL BSA, 0.05% NP-40, 20 min 37 C; footprinting binding 30 min 25 C; details: protein: recombinant; label: biotin; blunt

Binder | binding result (CcpA [1]) | binding result (CcpA [2])
B1 | binds | 
B2 |  | binds
B3 |  | binds
